Patent US20130195869A1 (SEKISUI CHEMICAL, published 2013)

T1: human CCR7 expressed on CHO-K1 cells (human CCR7 gene-introduced stable expression cell) (human, UniProt P32248 25-378)
T1 sequence: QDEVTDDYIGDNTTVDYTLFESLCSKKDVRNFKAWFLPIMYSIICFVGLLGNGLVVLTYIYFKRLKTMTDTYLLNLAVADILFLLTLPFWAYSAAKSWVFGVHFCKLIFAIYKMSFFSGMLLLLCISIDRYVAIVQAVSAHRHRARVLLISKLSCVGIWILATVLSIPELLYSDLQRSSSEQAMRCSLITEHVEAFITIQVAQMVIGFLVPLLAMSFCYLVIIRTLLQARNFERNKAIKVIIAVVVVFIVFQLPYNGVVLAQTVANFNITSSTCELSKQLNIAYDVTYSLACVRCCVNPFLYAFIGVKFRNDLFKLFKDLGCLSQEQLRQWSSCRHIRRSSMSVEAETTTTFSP

T2: human native CCR7 on peripheral blood mononuclear cells of a healthy person (human, UniProt P32248 25-378)
T2 construct: whole, on cells; Endogenous receptor on primary cells of a donor; kept apart from the recombinant receptor on CHO-K1 cells; also called CCR7 on PBMC
T2 sequence (looked up): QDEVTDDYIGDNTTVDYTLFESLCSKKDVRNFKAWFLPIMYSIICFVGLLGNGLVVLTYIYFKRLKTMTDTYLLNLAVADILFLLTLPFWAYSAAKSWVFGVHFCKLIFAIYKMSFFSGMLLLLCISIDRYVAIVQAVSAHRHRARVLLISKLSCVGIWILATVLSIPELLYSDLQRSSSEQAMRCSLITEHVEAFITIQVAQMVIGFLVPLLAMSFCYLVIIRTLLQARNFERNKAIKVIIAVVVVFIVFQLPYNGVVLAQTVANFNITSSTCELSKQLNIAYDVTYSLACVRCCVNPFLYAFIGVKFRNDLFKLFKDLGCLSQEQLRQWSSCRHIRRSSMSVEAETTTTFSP


Assays:
[1] = molecular target: human CCR7 expressed on CHO-K1 cells (human CCR7 gene-introduced stable expression cell) (human) (UniProt P32248); experiment: flow cytometry, 10 µg/mL antibody on hCCR7 gene-introduced CHO-K1 cells, PE anti-mouse IgG
[2] = molecular target: T1, human CCR7 expressed on CHO-K1 cells …; experiment: cell-based or functional assay
[3] = molecular target: T1, human CCR7 expressed on CHO-K1 cells …; experiment: flow cytometry, 10 µg/mL antibody on hCCR7 gene-introduced CHO-K1 cells, PE anti-mouse IgG
Method: A 10 μg/mL solution of an anti-human CCR7 monoclonal antibody or mouse control IgG (Thermo, negative control) in PBS was prepared (hereinafter, referred to as “antibody solution”). After washing hCCR7 gene-introduced cells with PBS, the antibody solution was incubated together with the cells. Further, the cells were washed with PBS, and added with a phycoerythrin-labeled anti-mouse IgG antibody (Beckman Coulter) as a secondary antibody. Then interaction between the cells, and the anti-human CCR7 antibody or the mouse control IgG was analyzed by using a flow cytometer FACScalibur (Becton, Dickinson). FIG. 9 is a histogram showing an analytical result of interaction between hCCR7 gene-introduced cells, and mouse control IgG. FIG. 10 is a histogram showing an analytical result of interaction between a hCCR7 gene-introduced cell, and anti-human CCR7 antibody R7-47. […] In FIGS. 9 and 10, the vertical axis represents the number of cells, and the horizontal axis represents fluorescence intensity originating from phycoerythrin (PE). Of the two areas (M1, M2), the cell belonging to M2 (right area) indicates the cells that binds to the antibody. In Table 2, a percentage of specifically binding cells is represented by M2/(M1+M2).

[4] = molecular target: T2, human native CCR7 on peripheral blood …; experiment: flow cytometry, 0.5 µg antibody on 3×10^5 human PBMC, FITC anti-mouse IgG
Method: From peripheral blood of a healthy person, mononuclear cells (PBMC) were isolated using Lymphoprep (Axis-Shield) according to a routine method. The isolated PBMC were suspended in a phosphate buffered saline (PBS) solution containing 1 mg/mL human gamma-globulin (Jackson Immuno Research Laboratories), and blocked by incubation at room temperature for 30 minutes. The PBMC (3×10⁵ cells) after blocking were incubated together with each anti-human CCR7 antibody (0.5 μg) or isotype control antibody (0.5 μg) at 4° C. for one hour. Thereafter, PBMC were washed three times with a washing buffer (PBS solution containing 0.1% fetal bovine serum). Then, a fluorescein isothiocyanate (FITC)-labeled anti-mouse IgG antibody (Beckman Coulter) was added as secondary antibody, and incubated at 4° C. for 1 hour. PBMC were washed again three times with the washing buffer, and then analyzed by using a flow cytometer (Beckman Coulter).

| Percentage of specifically binding cells (M2/(M1 + M2)) [1] [%] | 50% inhibition concentration (IC50) of the intracellular Ca^2+ rise caused by 1×10^-7 M CCL21 [2] [nM] | Percentage of specifically binding cells (M2/(M1 + M2)) [3] [%] | Percentage of specifically binding cells [4] [%] | Molecule |
| --- | --- | --- | --- | --- |
| 0.7 | – | – | – | mouse control IgG (Thermo, negative control) (antibody) |
| – | 7.4 | 99.9 | 49.3 | anti-human CCR7 monoclonal antibody R7-47 (hybridoma FERM BP-11376) (antibody, IgG1, V domains shown, Mouse monoclonal antibody from hybridoma) VH: EVQLQQSGPDLVKPGTSVKISCKASGYKFTDFNMDWVRQRHGKSLEWIGDVNPQNGEIFYNQKFRGKATLTVVKSSSTTYLELRSLTSEDTAVYFCTRLEFDYTGSNGFAYWGQGTLVTVSA VL: DILMTQTPLSLPVSLGDQASISCRSSQTLVHRNGNTYLEWYLQKPGQSPKLLIYKVSNRFSGVPDRFSGRGSGTDFTLKISRVEAEDQGIYYCFQGSHDPWTFGGGTK |
| – | 16 | 100 | 25.5 | anti-human CCR7 monoclonal antibody R7-11 (hybridoma FERM BP-11373) (antibody, IgG1, V domains shown, Mouse monoclonal antibody from hybridoma) VH: EVQLQQSGPDLVMPGASVRISCKASGYSFTAYYMHWVKQSHGLSLEWIGRVNPNNGGTSYNRKFKDKAILTVDRSSSTAFMELRSLTSEDSAVYYCARSESDHFYAMDSWGQGNSVSVSS VL: DIVMTQTPLSLPVSLGDQVFISCRSSQSLVHSNGNTYLCWFLQKPGQSPKLLIYRVSNRFSGVPDRFSGSGSGTDFTLKISRVEAEDLGVYFCFQGSHVPHTFGSGTK |
| – | 11 | 100 | 40.5 | anti-human CCR7 monoclonal antibody R7-18 (hybridoma FERM BP-11374) (antibody, IgG1, V domains shown, Mouse monoclonal antibody from hybridoma) VH: EVQLQQSGPDLVKPGASVKISCKASGYSFTGYYMHWVKQSHGKSLEWIGRVNPNNGGTSYNKKFKVKAILTVDRSSSTAYMEFRSLTLEDSAVYYCARSESNNFYAMDYWGQGKSVTVSS VL: DILMTQTPLSLPVSLGDQVSISCRSSQSLVHSNGNTYLCWYLQKPGQSPKLLIYRVSNRFSGVPDRFSGSGSGTDFTLKISRVEAEDLGVYFCFQGSHVPHTFGSGTK |
| – | 22 | 100 | 47 | anti-human CCR7 monoclonal antibody R7-25 (hybridoma FERM BP-11375) (antibody, IgG1, V domains shown, Mouse monoclonal antibody from hybridoma) VH: EVMVVESGPGLMKPSQSLSLTCAVTGYSITSGYDWHWIRHFPGNILEWMGYINYSGSTNYKPSLKSRISITLDTSKNHFFLKLSSVTTEDTATYYCARGSYYSYEFAYWGQGTLVTVSA VL: DIVMSQSPSSLAVSVGEKVTMSCKSSQRLLYYSTQKNYLAWYQQKPGQSPKLLIFWASTRESGVPNRFTGSGSGTDFTLTINSVKAEDLAVYYCQQYYTYPTFGGGTK |

The next lines start with the molecule.

| Molecule | Percentage of specifically binding cells (M2/(M1 + M2)) [1] [%] | 50% inhibition concentration (IC50) of the intracellular Ca^2+ rise caused by 1×10^-7 M CCL21 [2] [nM] | Percentage of specifically binding cells (M2/(M1 + M2)) [3] [%] | Percentage of specifically binding cells [4] [%] |
| --- | --- | --- | --- | --- |
| anti-human CCR7 monoclonal antibody R7-02 (hybridoma FERM BP-11404) (antibody, IgG2a, V domains shown, Mouse monoclonal antibody from hybridoma) VH: QVQLQQSGAELERPGASVKLSCTASGFNIRDDYVHWVKQRPEQGLEWIGRIDPANGNTKYGPKFQAKATLTADTSSNTAYLQLGSLTSEDTAVYYCTRSFYDYDLFVPWGQGTLVTVSA VL: DAVVTQESALTTSPGETVTLTCRSSTGAVTKNNFANWVQEKPDHLFTGLIGGNNIRAPGVPARFSGSLIGDKAALSITGAQTEDEAIYFCALWYSNHWVFGGGTK | – | 46 | 100 | 44.6 |
| anti-human CCR7 monoclonal antibody R7-05 (hybridoma FERM BP-11371) (antibody, IgG2b, V domains shown, Mouse monoclonal antibody from hybridoma) VH: EVQLQQSGAELVRPGASVKLSCTASGFNIKDDYIHWVKQRPEQGLDWIGRVDPADGNTKYAPNFHDKATVTADTSSNTAYLQLSSLTSEDTAVYYCARSFYDYDLFASWGQGTLVTVSA VL: DAVVTQESALTTSPGETVTLTCRSSTGAVTTSNFANWVQEKPDHLFTGLISSNNKRAPGVPARFSGSLIGDKAALSITGAQTEDEAIYFCALWYSNHWVFGGGTK | – | 94 | 100 | 37.3 |
| anti-human CCR7 monoclonal antibody R7-09 (hybridoma FERM BP-11372) (antibody, IgG2a, V domains shown, Mouse monoclonal antibody from hybridoma) VH: EVQLQQSGTELVRPGASVKLSCTASGFNIKDDYIHWVKQRPDQGLEWIGRIDPANGNTKYAPKFQDKATITSDTSSNTAYLQLSSLTSEDTAVYYCARSFYDYDLFASWGQGTLVSVSA VL: DAVVTQESALTTSPGGTVILTCRSSTGAVTTSNFANWVQEKPDHLFSGLISGNNKRAPGVPARFSGSLIGDKAALSITGAQTEDEAMYFCALWYNNHWVFGGGTK | – | 32 | 100 | 32.9 |
| anti-human CCR7 monoclonal antibody R7-01 (hybridoma FERM BP-11369) (antibody, IgG1, V domains shown, Mouse monoclonal antibody purified from hybridoma supernatant on protein G) VH: EVQLQQSGPELVKPGTSVKMSCKGSGYTFTDYYINWVRQSHGKSLEWIGRVNPGNGGTSYNQRFKGKATLTVDKFLSTAFMQLNSLTSEDSAVYFCARTGTYYNYDRGGFAYWGHGTLVTVSA VL: DVLLTQSPVSLPVSLGDQASISCRCSQNIVHINGNTYLEWFLQKPGQSPKLLIYKVSNRFSGVPDRFSGSGSGTDFTLKIRRVEAEDLGVYYCFQGSHVPHTFGSGTK | – | 340 | 99.8 | 10.8 |
